From publication PMC12089766

Columns and labels:
[1] = target: Arabidopsis cytosolic glyceraldehyde-3-phosphate dehydrogenase (GAPC1), recombinant, His-tagged (Arabidopsis thaliana) (UniProt P25858)
[2] = target: human glyceraldehyde-3-phosphate dehydrogenase (GAPDH), recombinant, His-tagged (human) (UniProt P04406)
[3] = target: Arabidopsis cytosolic glyceraldehyde-3-phosphate dehydrogenase (GAPC1), recombinant, His-tagged (Arabidopsis thaliana) (UniProt P25858); experiment: MST; GAPC1 labelled on its His tag (RED-tris-NTA 2nd Generation), 50 nM; cyclo(His-Pro) titrated; 50 mM Tris-HCl pH 8.0 with 1.6 mM NAD+; premium capillaries, Monolith X; binding from the spectral shift A670/A650
[4] = target: Arabidopsis cytosolic glyceraldehyde-3-phosphate dehydrogenase (GAPC1), recombinant, His-tagged (Arabidopsis thaliana) (UniProt P25858); experiment: nano-differential scanning fluorimetry (nanoDSF); about 0.8 ug protein per capillary in 50 mM Tris-HCl pH 8.0; ligands at 100 uM (cyclo(Tyr-Asp) also at 500 uM and 1 mM); ramp 2 °C/min, 20 to 90 °C; shift of the melting temperature against mock

Sequence of UniProt P25858 (P25858 whole entry): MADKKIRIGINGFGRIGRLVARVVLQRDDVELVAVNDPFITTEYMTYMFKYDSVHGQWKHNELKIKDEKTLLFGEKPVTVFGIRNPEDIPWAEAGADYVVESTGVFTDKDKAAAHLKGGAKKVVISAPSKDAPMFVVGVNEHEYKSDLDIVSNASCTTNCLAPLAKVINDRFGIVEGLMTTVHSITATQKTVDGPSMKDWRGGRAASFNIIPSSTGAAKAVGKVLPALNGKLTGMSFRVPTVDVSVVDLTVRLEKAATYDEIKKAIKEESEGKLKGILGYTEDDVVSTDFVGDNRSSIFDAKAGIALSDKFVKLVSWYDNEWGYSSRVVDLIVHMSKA
Sequence of UniProt P04406 (P04406 whole entry): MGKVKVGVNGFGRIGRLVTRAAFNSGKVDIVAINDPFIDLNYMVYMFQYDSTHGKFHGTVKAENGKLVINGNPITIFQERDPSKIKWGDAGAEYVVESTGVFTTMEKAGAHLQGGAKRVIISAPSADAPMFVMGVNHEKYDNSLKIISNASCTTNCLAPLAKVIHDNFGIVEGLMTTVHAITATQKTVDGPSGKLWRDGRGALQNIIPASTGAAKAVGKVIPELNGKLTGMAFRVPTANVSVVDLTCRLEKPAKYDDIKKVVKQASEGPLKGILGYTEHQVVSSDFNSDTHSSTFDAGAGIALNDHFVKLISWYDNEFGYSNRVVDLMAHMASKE

IC50 of inhibition of GAPC1 enzymatic activity (oxidation of glyceraldehyde-3-phosphate, reduction of NAD+ to NADH) [1]	IC50 of inhibition of GAPDH enzymatic activity [2]	Kd [3]	shift of the melting temperature at 100 μM ligand [4]	IC50 of inhibition of enzymatic activity [1]	Substance
200 µM	70 µM	40 µM	> 4 °C		cyclo(His-Pro), cyclo(L-histidyl-L-proline) (peptide)
				1500 µM	cyclo(Tyr-Asp), cyclo(L-tyrosyl-L-aspartic acid) (peptide)
